This note sets out measurements from patent publication US20220412989A1, “COMPOSITIONS AND METHODS FOR DETECTING CELLS UNDERGOING FERROPTOSIS USING AN ANTIBODY” (THE TRUSTEES OF COLUMBIA UNIVERSITY IN THE CITY OF NEW YORK, priority 2020, published 2022).

For assay [1], the system named is B cell lymphoma (SU-DHL-6) mouse xenograft tumor tissue. In words: Staining of B cell lymphoma mouse xenograft tumor tissue sections. Details: species or system human. The following applies: 40 mg/kg IKE once daily IP 14 days. On the procedure: (§1) Tumor tissues were fixed in 4% paraformaldehyde (PFA) for 24 h at 4° C. followed by washing with PBS three times. The tissues were perfused in 30% sucrose for 24 h at 4° C. for cryo-protection. The samples were embedded in OCT cryostat sectioning medium, and then moved directly into a cryostat. After equilibration of temperature, frozen tumor tissues were cut into 5 μm thick sections. Tissue sections were mounted on to poly-L-lysine coated slides by placing the cold sections onto warm slides. Slides were stored at −80° C. until staining. For staining, slides were warmed to room temperature followed by washing with PBS twice. A hydrophobic barrier pen was used to draw a circle on each slide. The slides were permeabilized with PBS with 0.4% Triton X-100 (PBT) twice before non-specific-binding blocking by incubating the sections with 10% goat serum (ThermoFisher 50197Z) for 30 min at room temperature. […] All images were captured on a Zeiss LSM 800 confocal microscope at Plan-Apochromat 63x/1.40 Oil DIC objective with constant laser intensity for all analyzed samples. The intensity above threshold of the fluorescent signal of the bound antibodies was analyzed using NIH ImageJ software (ImageJ, RRID:SCR_003070). Data were expressed as fold change comparing with the vehicle. […]

In assay [2] the test system is HCC (Huh-7) mouse xenograft tumor tissue. In words: Staining of hepatocellular carcinoma mouse xenograft tumor tissue sections. Further details: species or system human. The note with it: 50 mg/kg IKE once daily IP 2 days. As for the experimental part: as §1

“Also recorded” adds a separate entry of the source.

B1: 3F3-FMA: murine monoclonal IgG1 raised against ferroptotic membrane fractions; antigen is human transferrin receptor protein 1 (TfR1) (antibody, V domains shown)
VH: EVLLQQSGTELVRPGALVKLSCKASGFNIQDLYIHWVKQRPEQGLEWIGWIDPETDNTIYDPKFQGKASITADTSSNTAYLQLSSLTSEDTAMYYCSTGLLQWYFDVWGAGTAVTVSS
VL: DIVMTQSPSSLAMSIGQKVTMRCKSSQSLLNSYNQKNCLAWYQQKPGQSPKLLLYFVSTRESGVPDRFIGSGSGTDFTLTISSVQAEDLADYFCQQHYSTPLTFGAGTKLELK
In the case of B1, the “staining intensity, IKE-treated vs vehicle samples” value in assay [1] is given as “did not detect its antigen; also recorded: no difference”; in assay [2] it was “increased intensities; also recorded: difference in intensities”.
